Laboratory results as given in patent US20240301085A1.

What was measured:
[1] = molecular target: human GPC3-His protein (human) (UniProt P51654); assay: ELISA, coated human GPC3-His, antibody 100 nM
[2] = molecular target: murine GPC3-His protein (murine) (UniProt Q8CFZ4); assay: ELISA, coated murine GPC3-His, antibody 0.01 nM
[3] = molecular target: human GPC3-His protein (human) (UniProt P51654); assay: ELISA, coated human GPC3-His, antibody 100 nM; remark: listed apart in the source
[4] = molecular target: human GPC3-His protein (human) (UniProt P51654); assay: ELISA, coated human GPC3-His, antibody 0.001 nM
[5] = molecular target: murine GPC3-His protein (murine) (UniProt Q8CFZ4); assay: ELISA, coated murine GPC3-His, antibody 100 nM
[6] = molecular target: Polypeptide GC3pep of human GPC3 (Ala524-Lys563) (human); assay: ELISA, coated GC3pep, antibody 0.01 nM
Polypeptide GC3pep of human GPC3 (Ala524-Lys563) (human), sequence (peptide, as listed by the source): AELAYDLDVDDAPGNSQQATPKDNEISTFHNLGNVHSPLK

[7] = molecular target: human GPC3-His protein (human) (UniProt P51654); assay: ELISA, coated human GPC3-His, antibody 10 nM
[8] = molecular target: Polypeptide GC3pep of human GPC3 (Ala524-Lys563) (human); assay: ELISA, coated GC3pep, antibody 100 nM
[9] = molecular target: human GPC3-His protein (human) (UniProt P51654); assay: ELISA, coated human GPC3-His, antibody 0.1 nM
[10] = molecular target: monkey GPC3-His protein (monkey); assay: ELISA, coated monkey GPC3-His, antibody 0.1 nM
[11] = molecular target: human GPC3, full length, on cells (human) (UniProt P51654); assay: FACS on CHO-K1-human GPC3 cells
[12] = molecular target: human GPC3-His protein (human) (UniProt P51654); assay: ELISA, coated human GPC3-His, antibody 10 nM; remark: listed apart in the source
[13] = molecular target: human GPC3-His protein (human) (UniProt P51654); assay: ELISA, coated human GPC3-His, antibody 0.01 nM
[14] = molecular target: monkey GPC3-His protein (monkey); assay: ELISA, coated monkey GPC3-His, antibody 1 nM
[15] = molecular target: murine GPC3-His protein (murine) (UniProt Q8CFZ4); assay: ELISA, coated murine GPC3-His, antibody 0.0001 nM
[16] = molecular target: human GPC3, full length, on cells (human) (UniProt P51654); assay: FACS on CHO-K1 clone CHOK1-hGPC3.3E9
[17] = molecular target: monkey GPC3-His protein (monkey); assay: ELISA, coated monkey GPC3-His, antibody 10 nM
[18] = molecular target: murine GPC3-His protein (murine) (UniProt Q8CFZ4); assay: ELISA, coated murine GPC3-His, antibody 10 nM
[19] = molecular target: Polypeptide GC3pep of human GPC3 (Ala524-Lys563) (human); assay: ELISA, coated GC3pep, antibody 100 nM; remark: listed apart in the source
[20] = molecular target: human GPC3-His protein (human) (UniProt P51654); assay: ELISA, coated human GPC3-His, antibody 0.01 nM; remark: listed apart in the source
[21] = molecular target: human GPC3-His protein (human) (UniProt P51654); assay: ELISA, coated human GPC3-His, antibody 1 nM
[22] = molecular target: Polypeptide GC3pep of human GPC3 (Ala524-Lys563) (human); assay: ELISA, coated GC3pep, antibody 10 nM
[23] = molecular target: human GPC3-His protein (human) (UniProt P51654); assay: ELISA, coated human GPC3-His, antibody 0.0001 nM
[24] = molecular target: monkey GPC3, full length, on HEK293T cells (monkey); assay: FACS on HEK293T-monkey GPC3 cells
[25] = molecular target: monkey GPC3-His protein (monkey); assay: ELISA, coated monkey GPC3-His, antibody 0.01 nM
[26] = molecular target: monkey GPC3-His protein (monkey); assay: ELISA, coated monkey GPC3-His, antibody 0.001 nM
[27] = molecular target: monkey GPC3-His protein (monkey); assay: ELISA, coated monkey GPC3-His, antibody 0.0001 nM
[28] = molecular target: murine GPC3-His protein (murine) (UniProt Q8CFZ4); assay: ELISA, coated murine GPC3-His, antibody 0.01 nM; remark: listed apart in the source
[29] = molecular target: monkey GPC3-His protein (monkey); assay: ELISA, coated monkey GPC3-His, antibody 0.01 nM; remark: listed apart in the source
[30] = molecular target: murine GPC3-His protein (murine) (UniProt Q8CFZ4); assay: ELISA, coated murine GPC3-His, antibody 1 nM
[31] = molecular target: monkey GPC3-His protein (monkey); assay: ELISA, coated monkey GPC3-His, antibody 10 nM; remark: listed apart in the source
[32] = molecular target: human GPC3-His protein (human) (UniProt P51654); assay: ELISA, coated human GPC3-His, antibody 0.0001 nM; remark: listed apart in the source
[33] = molecular target: human GPC3-His protein (human) (UniProt P51654); assay: ELISA, coated human GPC3-His, antibody 0.001 nM; remark: listed apart in the source
[34] = molecular target: Polypeptide GC3pep of human GPC3 (Ala524-Lys563) (human); assay: ELISA, coated GC3pep, antibody 1 nM
[35] = molecular target: murine GPC3-His protein (murine) (UniProt Q8CFZ4); assay: ELISA, coated murine GPC3-His, antibody 0.1 nM
[36] = molecular target: Polypeptide GC3pep of human GPC3 (Ala524-Lys563) (human); assay: ELISA, coated GC3pep, antibody 0.0001 nM
[37] = molecular target: human GPC3-His protein (human) (UniProt P51654); assay: ELISA, coated human GPC3-His, antibody 0.1 nM; remark: listed apart in the source
[38] = molecular target: murine GPC3-His protein (murine) (UniProt Q8CFZ4); assay: ELISA, coated murine GPC3-His, antibody 0.001 nM
[39] = molecular target: monkey GPC3-His protein (monkey); assay: ELISA, coated monkey GPC3-His, antibody 0.1 nM; remark: listed apart in the source
[40] = molecular target: human GPC3, full length, on cells (human) (UniProt P51654); assay: FACS on CHO-K1 clone CHOK1-hGPC3.2B5
[41] = molecular target: murine GPC3-His protein (murine) (UniProt Q8CFZ4); assay: ELISA, coated murine GPC3-His, antibody 0.0001 nM; remark: listed apart in the source
[42] = molecular target: human GPC3, full length, on cells (human) (UniProt P51654); assay: FACS on HepG2 cells, control in the row of Y035
[43] = molecular target: monkey GPC3-His protein (monkey); assay: ELISA, coated monkey GPC3-His, antibody 100 nM
[44] = molecular target: human GPC3, full length, on cells (human) (UniProt P51654); assay: FACS on CHO-K1 clone CHOK1-hGPC3.1C3
[45] = molecular target: murine GPC3-His protein (murine) (UniProt Q8CFZ4); assay: ELISA, coated murine GPC3-His, antibody 100 nM; remark: listed apart in the source
[46] = molecular target: human GPC3-His protein (human) (UniProt P51654); assay: ELISA, coated human GPC3-His, antibody 1 nM; remark: listed apart in the source
[47] = molecular target: Polypeptide GC3pep of human GPC3 (Ala524-Lys563) (human); assay: ELISA, coated GC3pep, antibody 0.1 nM
[48] = molecular target: murine GPC3-His protein (murine) (UniProt Q8CFZ4); assay: ELISA, coated murine GPC3-His, antibody 10 nM; remark: listed apart in the source
[49] = molecular target: monkey GPC3-His protein (monkey); assay: ELISA, coated monkey GPC3-His, antibody 100 nM; remark: listed apart in the source
[50] = molecular target: murine GPC3-His protein (murine) (UniProt Q8CFZ4); assay: ELISA, coated murine GPC3-His, antibody 0.001 nM; remark: listed apart in the source
[51] = molecular target: monkey GPC3-His protein (monkey); assay: ELISA, coated monkey GPC3-His, antibody 1 nM; remark: listed apart in the source
[52] = molecular target: Polypeptide GC3pep of human GPC3 (Ala524-Lys563) (human); assay: ELISA, coated GC3pep, antibody 0.001 nM
[53] = molecular target: monkey GPC3-His protein (monkey); assay: ELISA, coated monkey GPC3-His, antibody 0.0001 nM; remark: listed apart in the source
[54] = molecular target: human GPC3, full length, on cells (human) (UniProt P51654); assay: FACS on HepG2 cells, control in the row of T2-23
[55] = molecular target: human GPC3, full length, on cells (human) (UniProt P51654); assay: FACS on HepG2 cells
[56] = molecular target: monkey GPC3-His protein (monkey); assay: ELISA, coated monkey GPC3-His, antibody 0.001 nM; remark: listed apart in the source

UniProt Q8CFZ4, sequence (Q8CFZ4 25-558 limits assumed): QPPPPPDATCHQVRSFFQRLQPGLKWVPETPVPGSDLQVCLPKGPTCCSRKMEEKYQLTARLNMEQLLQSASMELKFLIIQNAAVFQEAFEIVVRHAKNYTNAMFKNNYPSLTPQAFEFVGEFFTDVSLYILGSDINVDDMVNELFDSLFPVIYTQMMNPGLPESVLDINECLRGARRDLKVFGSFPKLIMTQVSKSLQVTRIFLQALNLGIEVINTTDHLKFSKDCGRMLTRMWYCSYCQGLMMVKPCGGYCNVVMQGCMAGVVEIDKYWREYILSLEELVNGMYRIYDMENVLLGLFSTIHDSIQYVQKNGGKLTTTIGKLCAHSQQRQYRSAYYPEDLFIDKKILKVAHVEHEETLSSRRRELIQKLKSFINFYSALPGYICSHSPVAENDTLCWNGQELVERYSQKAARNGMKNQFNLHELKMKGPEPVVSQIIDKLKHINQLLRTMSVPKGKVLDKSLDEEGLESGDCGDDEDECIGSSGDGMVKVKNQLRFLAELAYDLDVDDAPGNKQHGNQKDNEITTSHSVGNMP

Question: How did the OD450 [1] turn out when human IgG1 subtype control (antibody) was run?
Answer: 0.09

Question: What about the OD450 [2] of the same substance?
Answer: 0.05

Question: And the OD450 [3]?
Answer: 0.072

Question: What about the OD450 [4] of the same substance?
Answer: 0.09

Question: What about the OD450 [5] of the same substance?
Answer: 0.105

Question: What about the OD450 [6] of the same substance?
Answer: 0.046

Question: And the OD450 [7]?
Answer: 0.1

Question: And the OD450 [8]?
Answer: 0.069

Question: What about the OD450 [9] of the same substance?
Answer: 0.05

Question: What about the OD450 [10] of the same substance?
Answer: 0.04

Question: What about the Max MFI [11] of the same substance?
Answer: 82

Question: What about the OD450 [12] of the same substance?
Answer: 0.05

Question: What about the OD450 [13] of the same substance?
Answer: 0.048

Question: And the OD450 [14]?
Answer: 0.044

Question: What about the OD450 [15] of the same substance?
Answer: 0.05

Question: What about the Mean fluorescence intensity of cells [16] of the same substance?
Answer: 19.3

Question: And the OD450 [17]?
Answer: 0.047

Question: What about the OD450 [18] of the same substance?
Answer: 0.055

Question: And the OD450 [19]?
Answer: 0.06

Question: What about the OD450 [20] of the same substance?
Answer: 0.1

Question: And the OD450 [21]?
Answer: 0.09

Question: And the OD450 [22]?
Answer: 0.04

Question: And the OD450 [23]?
Answer: 0.09

Question: And the Max MFI [24]?
Answer: 95

Question: What about the OD450 [25] of the same substance?
Answer: 0.05

Question: And the OD450 [26]?
Answer: 0.044

Question: And the OD450 [27]?
Answer: 0.048

Question: And the OD450 [28]?
Answer: 0.052

Question: What about the OD450 [29] of the same substance?
Answer: 0.044

Question: And the OD450 [30]?
Answer: 0.05

Question: And the OD450 [31]?
Answer: 0.08

Question: What about the OD450 [32] of the same substance?
Answer: 0.047

Question: What about the OD450 [33] of the same substance?
Answer: 0.048

Question: And the OD450 [34]?
Answer: 0.04

Question: And the OD450 [35]?
Answer: 0.05

Question: And the OD450 [36]?
Answer: 0.06

Question: And the OD450 [37]?
Answer: 0.09

Question: What about the OD450 [38] of the same substance?
Answer: 0.051

Question: What about the OD450 [39] of the same substance?
Answer: 0.045

Question: And the Mean fluorescence intensity of cells [40]?
Answer: 19.3

Question: And the OD450 [41]?
Answer: 0.049

Question: What about the Mean fluorescence intensity of cells [42] of the same substance?
Answer: 137

Question: What about the OD450 [43] of the same substance?
Answer: 0.056

Question: What about the Mean fluorescence intensity of cells [44] of the same substance?
Answer: 19.3

Question: And the OD450 [45]?
Answer: 0.08

Question: What about the OD450 [46] of the same substance?
Answer: 0.048

Question: And the OD450 [47]?
Answer: 0.04

Question: What about the OD450 [48] of the same substance?
Answer: 0.07

Question: And the OD450 [49]?
Answer: 0.19

Question: What about the OD450 [50] of the same substance?
Answer: 0.05

Question: What about the OD450 [51] of the same substance?
Answer: 0.05

Question: And the OD450 [52]?
Answer: 0.046

Question: What about the OD450 [53] of the same substance?
Answer: 0.05

Question: And the Mean fluorescence intensity of cells [54]?
Answer: 137

Question: What about the Max MFI [55] of the same substance?
Answer: 110

Question: And the OD450 [56]?
Answer: 0.04
